Earlier results in paper PMC3791513.

Target: GPR77 (Homo sapiens) (UniProt Q9P296)
Sequence (Q9P296 whole entry): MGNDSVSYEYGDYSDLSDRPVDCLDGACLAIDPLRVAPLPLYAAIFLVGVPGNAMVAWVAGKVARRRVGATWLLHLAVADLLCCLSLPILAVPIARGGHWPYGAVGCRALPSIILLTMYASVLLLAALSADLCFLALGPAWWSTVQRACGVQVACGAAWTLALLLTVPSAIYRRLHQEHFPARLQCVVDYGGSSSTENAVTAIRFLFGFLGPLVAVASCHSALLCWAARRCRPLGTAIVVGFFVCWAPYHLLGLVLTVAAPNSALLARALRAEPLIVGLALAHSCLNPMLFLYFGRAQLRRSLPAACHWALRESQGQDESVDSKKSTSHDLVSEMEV

Sequence of complement anaphylatoxin C5a C5a (P01031 675-754): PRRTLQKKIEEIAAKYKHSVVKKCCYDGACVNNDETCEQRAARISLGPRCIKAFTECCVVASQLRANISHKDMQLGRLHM

Substance: complement anaphylatoxin C5a C5a (from UniProt P01031)
- Kd: 2.5 nM
